other: Fold Change and response data for 42 substances are collected here from publication PMC5513711, “Noroviruses Co-opt the Function of Host Proteins VAPA and VAPB for Replication via a Phenylalanine–Phenylalanine-Acidic-Tract-Motif Mimic in Nonstructural Viral Protein NS1/2” (mBio, 2017).

Where two headings read alike, the source gives them in different places.

For assay [1], the target named is VAPA (mammalian 2-hybrid construct) (UniProt Q9WV55). Nature of the assay: mammalian 2-hybrid (M2H). The settings on record: n = 3; for response: parent: est. 170, read off a plot.
VAPA (mammalian 2-hybrid construct), sequence (Q9WV55 whole entry): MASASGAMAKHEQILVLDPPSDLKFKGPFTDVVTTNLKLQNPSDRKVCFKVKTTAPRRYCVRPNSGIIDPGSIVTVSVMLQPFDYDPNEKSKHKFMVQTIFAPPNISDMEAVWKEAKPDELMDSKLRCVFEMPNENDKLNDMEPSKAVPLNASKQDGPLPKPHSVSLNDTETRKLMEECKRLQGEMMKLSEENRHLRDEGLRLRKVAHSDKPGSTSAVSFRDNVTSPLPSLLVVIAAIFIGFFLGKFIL
Assay [2] deals with NS1/2^MNoV (strain not told; partner of the VAPA mutants in Fig. 4A and 4C). Nature of the assay: mammalian 2-hybrid (M2H). The settings on record: for response: read off a plot.

In the case of “NS1/2^MNoV of strain CR6 (mammalian 2-hybrid construct) D43A”, in assay [1], the other: Fold Change is 1.35 and the response came to 40 %fluc/Rluc. For “NS1/2^MNoV of strain CR6 (mammalian 2-hybrid construct) D43K”, in that order: 1.07 and 30 %fluc/Rluc. For “NS1/2^MNoV of strain CR6 (mammalian 2-hybrid construct) D121G”, in that order: 7.91 and 180 %fluc/Rluc. For “NS1/2^MNoV of strain CR6 (mammalian 2-hybrid construct) D131G”, in that order: 7.98 and 180 %fluc/Rluc. On to “NS1/2^MNoV of strain CR6 (mammalian 2-hybrid construct) E40A”, for which, in assay [1], the other: Fold Change was 2.13 and the response is 62 %fluc/Rluc. For “NS1/2^MNoV of strain CR6 (mammalian 2-hybrid construct) E40K”, in that order: 1.31 and 45 %fluc/Rluc. Take “NS1/2^MNoV of strain CR6 (mammalian 2-hybrid construct) E42A”: in assay [1], the other: Fold Change turned out to be 1.22 and the response was 30 %fluc/Rluc. For “NS1/2^MNoV of strain CR6 (mammalian 2-hybrid construct) E42K”, in that order: 1.04 and 28 %fluc/Rluc. For “NS1/2^MNoV of strain CR6 (mammalian 2-hybrid construct) E44A”, in that order: 1.78 and 55 %fluc/Rluc.

Consider “NS1/2^MNoV of strain CR6 (mammalian 2-hybrid construct) E44K”, for which, in assay [1], the other: Fold Change was 0.95 and the response amounted to 30 %fluc/Rluc. For “NS1/2^MNoV of strain CR6 (mammalian 2-hybrid construct) E52K”, in that order: 1.63 and 30 %fluc/Rluc. For “NS1/2^MNoV of strain CR6 (mammalian 2-hybrid construct) E54K”, in that order: 3.92 and 90 %fluc/Rluc. For “NS1/2^MNoV of strain CR6 (mammalian 2-hybrid construct) H69L”, in that order: 8.14 and 180 %fluc/Rluc. For the substance “NS1/2^MNoV of strain CR6 (mammalian 2-hybrid construct) M48A”, in assay [1], the other: Fold Change was found to be 12.8 and the response came out at 190 %fluc/Rluc. Consider “NS1/2^MNoV of strain CR6 (mammalian 2-hybrid construct) M48D”, for which, in assay [1], the other: Fold Change came out at 6.37 and the response was 180 %fluc/Rluc. For “NS1/2^MNoV of strain CR6 (mammalian 2-hybrid construct) M48G”, in that order: 11.7 and 250 %fluc/Rluc. For “NS1/2^MNoV of strain CR6 (mammalian 2-hybrid construct) M48I”, in that order: 5.16 and 150 %fluc/Rluc.

Regarding “NS1/2^MNoV of strain CR6 (mammalian 2-hybrid construct) M48L”, in assay [1], the other: Fold Change came out at 10.8 and the response came to 300 %fluc/Rluc. For “NS1/2^MNoV of strain CR6 (mammalian 2-hybrid construct) N46C”, in that order: 7.96 and 220 %fluc/Rluc.

Turning to “NS1/2^MNoV of strain CR6 (mammalian 2-hybrid construct) N46D”, in assay [1], the other: Fold Change stood at 10.3 and the response stood at 290 %fluc/Rluc. As to “NS1/2^MNoV of strain CR6 (mammalian 2-hybrid construct) N46G”, in assay [1], the other: Fold Change stood at 10.8 and the response was 300 %fluc/Rluc. For the substance “NS1/2^MNoV of strain CR6 (mammalian 2-hybrid construct) S41G”, the response in assay [1] stood at 40 %fluc/Rluc. As for “NS1/2^MNoV of strain CR6 (mammalian 2-hybrid construct) T49A”, in assay [1], the other: Fold Change amounted to 1.55 and the response worked out at 50 %fluc/Rluc. For “NS1/2^MNoV of strain CR6 (mammalian 2-hybrid construct) T49G”, in that order: 1.35 and 30 %fluc/Rluc. For “NS1/2^MNoV of strain CR6 (mammalian 2-hybrid construct) V45A”, in that order: 8.72 and 250 %fluc/Rluc. For “NS1/2^MNoV of strain CR6 (mammalian 2-hybrid construct) V45G”, in that order: 8.32 and 240 %fluc/Rluc.

“NS1/2^MNoV of strain CR6 (mammalian 2-hybrid construct) V45I”: in assay [1], the other: Fold Change was determined as 5.53 and the response is 100 %fluc/Rluc. For “NS1/2^MNoV of strain CR6 (mammalian 2-hybrid construct) Y47A”, in that order: 1.55 and 45 %fluc/Rluc. For “NS1/2^MNoV of strain CR6 (mammalian 2-hybrid construct) Y47G”, in that order: 1.25 and 30 %fluc/Rluc. Regarding “VAPA (mammalian 2-hybrid construct) (from UniProt Q9WV55) C60A”, in assay [2] (n = 3), the other: Fold Change stood at 3.9. Also, the response in assay [2] (n = 3, parent: est. 170) was determined as 61 %fluc/Rluc.

The substance “VAPA (mammalian 2-hybrid construct) (from UniProt Q9WV55) D123A” returned an other: Fold Change in assay [2] (n = 3) of 8.18. Besides, the response in assay [2] (n = 3, parent: est. 170) is 110 %fluc/Rluc. “VAPA (mammalian 2-hybrid construct) (from UniProt Q9WV55) H195E; R197E” gave an other: Fold Change in assay [2] of 3.28. Besides, the response in assay [2] (parent: est. 140) worked out at 85 %fluc/Rluc. The substance “VAPA (mammalian 2-hybrid construct) (from UniProt Q9WV55) K50A” had an other: Fold Change in assay [2] (n = 3) of 3.11. In addition, the response in assay [2] (n = 3, parent: est. 170) turned out to be 69 %fluc/Rluc. For “VAPA (mammalian 2-hybrid construct) (from UniProt Q9WV55) K50E”, in that order: 2.26 and 41 %fluc/Rluc.

“VAPA (mammalian 2-hybrid construct) (from UniProt Q9WV55) K50E; K52E”: the other: Fold Change in assay [2] amounted to 1.29. In assay [2] (parent: est. 140), the response is 38 %fluc/Rluc.

In assay [2] (n = 3), “VAPA (mammalian 2-hybrid construct) (from UniProt Q9WV55) K52A” came in with an other: Fold Change of 1.4. Also, the response in assay [2] (n = 3, parent: est. 170) came to 35 %fluc/Rluc. For “VAPA (mammalian 2-hybrid construct) (from UniProt Q9WV55) K52E”, in that order: 1.38 and 32 %fluc/Rluc. For “VAPA (mammalian 2-hybrid construct) (from UniProt Q9WV55) K94A”, in that order: 1.74 and 42 %fluc/Rluc. “VAPA (mammalian 2-hybrid construct) (from UniProt Q9WV55) K94A; M96A” showed an other: Fold Change in assay [2] of 0.95. The response in assay [2] (parent: est. 140) is 27 %fluc/Rluc.

As for “VAPA (mammalian 2-hybrid construct) (from UniProt Q9WV55) K94E”, in assay [2] (n = 3), the other: Fold Change is 1.2. Moreover, the response in assay [2] (n = 3, parent: est. 170) was 38 %fluc/Rluc. The substance “VAPA (mammalian 2-hybrid construct) (from UniProt Q9WV55) K125A” came in with an other: Fold Change in assay [2] (n = 3) of 1.67. Besides, the response in assay [2] (n = 3, parent: est. 170) was found to be 27 %fluc/Rluc. For “VAPA (mammalian 2-hybrid construct) (from UniProt Q9WV55) K125E”, in that order: 1.47 and 27 %fluc/Rluc.
